In the DeepSol protein solubility set:

Test: soluble on expression in E. coli; label from the status in PepcDB or PDB records

Sequence | soluble on expression in E. coli
MSLIVVKIGGRVVKNSLDKIILDILNINDKVILVHGGGDIVTDYTKRLGIEPVFVTSPEGIRSRYTTKEELEVYIMAMSLINKSITSKLCSLGKNAIGITGVDGGLLLAERKKRIVVIDERGKKRIIEGGYTGKVKEVRSEIINHLVKLFDIIVVSPIALDVEERTPLNIDGDQAAFAISKALRANVLILLSDVEGVLVEGKVINRLTPSEAKELSKKIGPGMNRKLLMAAESVENGVNKVIIGSGVKDRPIINALELNGTVIANGEGHHHHHH | soluble
MSLDPEDVYDGGYGSKHSPVQLRIGNGGAGQSGLVKELADAFIKSKVDSGSAPFKVAWYKSDTTVTINYLKDGIVDVGITYSPVAERISIKHGISESPSYYAFRDHFMLIGPPSNPAKLSGDSDIADMFSKMHDAAEAGNTKPPVRFLSRYDKSATNIKEAELWLSIGQVPWATAYSTWYHQYITFPIQALTAAILLREYTITDYGTYLSIPRGLRDQMVIYKKGTNDADDPLLNPAHLLVGARAKNAEMAKEFAKWLVSKEGGQKVIEGFKKDGQQLYSPAPYRHEGHHHHHH | soluble
FEDVVGQEHITKTLQNALLQKKFSHAYLFSGPRGTGKTSAAKIFAKAVNCEHAPVDEPCNECAACKGITNGSISDVIEIDAASNNGVDEIRDIRDKVKFAPSAVTYKVYIIDEVHMLSIGAFNALLKTLEEPPEHCIFILATTEPHKIPLTIISRCQRFDFKRITSQAIVGRMNKIVDAEQLQVEEGSLEIIASAADGGMRDALSLLDQAISFSGDILKVEDALLITGAVSQLYIGKLAKSLHDKNVSDALETLNELLQQGKDPAKLIEDMIFYFRDMLLYKTAPGLEGVLEKVKVDETFRELSEQIPAQALYEMIDILNKSHQEMKWTNHPRIFFEVAVVKICQTSHQSAADLPEVDMLMKKIQQLEQEVERLKTTGIKAAAESPKKEAPRVPKGGKSNYKAPVGRIHEILKEATRPDLDLLRNSWGKLLAHLKQQNKVSHAALLNDSEPVAAGSAAFVLKFKYEIHCKMVAEDNNGVRTNLEQILESMLGKRMDLIGVPEAQWGKIREEFLEDHQQANEGSNEPAEEDPLIAEAKKLVGADLIEIKD | not soluble
MPTYEELSQAVFEGDEAQVVELTRSLLSGGAEPLEVINKGLIAGMDRVGVLFKNNEMFVPEVLMSANAMNAGVEVVKQSQQAFDMPSVGKIVLGTVKGDLHDIGKNLVAMMLESGGFTVYNLGVDIEPGKFVEAVKKYQPDIVGMSALLTTTMMNMKSTIDALIAAGLRDRVKVIVGGAPLSQDFADEIGADGYAPDAASATELCRQLLE | soluble
MKRILNYPGSKWGLADLIIENMPEHKSYLEPFCGSCAVFMNKQKATLETINDLDGRLVNLFKTMRDNPEELQYLIMHTLYSREEYMLSHEISSDSLEDARRMAVRLWFAVGGKTNANVGFRKNVSWNGPYNAYEWNDMYNRIGIAAARLKDAQIENVDAIKLIEQHNDKDTLIYCDPPYVATSLASSHYQHDFSLEQHKELLKVLKKHEGKVMLSGYESELYKQELSDWPALKTMTKVGITSEKKSDRQEIIWCNFEPPMQLNLFKEEQA | not soluble
MKKIVLYGGQFNPIHTAHMIVASEVFHELQPDEFYFLPSFMSPLKKHHDFIDVQHRLTMIQMIIDELGFGDICDDEIKRGGQSYTYDTIKAFKEQHKDSELYFVIGTDQYNQLEKWYQIEYLKEMVTFVVVNRDKNSQNVENAMIAIQIPRVDISSTMIRQRVSEGKSIQVLVPKSVENYIKGEGLYEH | soluble
EAHQIRRSGNYQPALWDSNYIQSLNTPYTEERHLDRKAELIVQVRILLKEKMEPVQQLELIHDLKYLGLSDFFQDEIKEILGVIYNEHKCFHNNEVEKMDLYFTALGFRLLRQHGFNISQDVFNCFKNEKGIDFKASLAQDTKGMLQLYEASFLLRKGEDTLELAREFATKCLQKKLDEGGNEIDENLLLWIRHSLDLPLHWRIQSVEARWFIDAYARRPDMNPLIFELAKLNFNIIQATHQQELKDLSRWWSRLCFPEKLPFVRDRLVESFFWAVGMFEPHQHGYQRKMAATIIVLATVIDDIYDVYGTLDELELFTDTFKRWDTESITRLPYYMQLCYWGVHNYISDAAYDILKEHGFFCLQYLRKSVVDLVEAYFHEAKWYHSGYTPSLDEYLNIAKISVASPAIISPTYFTFANASHDTAVIDSLYQYHDILCLAGIILRLPDDLGTSYFELARGDVPKTIQCYMKETNASEEEAVEHVKFLIREAWKDMNTAIAAGYPFPDGMVAGAANIGRVAQFIYLHGDGFGVQHSKTYEHIAGLLFEPYA | soluble
MSLASAIRICTKFSRLSLNSRSTSKSLIHCMSNVTADVPPVSETKSKFLKAYKRPIPSIYNTVLQELIVQQHLMRYKKTYRYDPVFALGFVTVYDQLMEGYPSDQDRDAIFKAYIEALNEDPKQYRIDAQKMEEWARSQTSASLVDFSSKEGDIEAVLKDIAGRAGSKEGFSYSRFFAVGLFRLLELASATDPTVLDKLCASLNINKKSVDRDLDVYRNLLSKLVQANELLKEYVEREKKKQEERAQSQKANETISKCLGDTLYNPSFLVERKSEGHHHHHH | soluble
MGHNDELIRNKSAFASEMSDAAAIVQYADKNSLVVLDELARSTSTEEGIAITYAICEKVLKLHSYTFLATHFLDIAALANYSNAIDNYHFLPQIDDNSTKKHKLLRG | not soluble
MAHHHHHHMSRTLTTTQPSVASSPASSSSGSTHQRPSADQLAETVHQMDEENALEFVSIDATSRDQVFHFLHDHPDATAVVNAVGLLTRNYEDARQVNGDVMTNIAAGVFHPKLAQSVQKVVYVSAEPYNLYSRRILGSKHLLKGYFHGKRIGEKAVLENLGNKGVVLRPSFIYGTRHVLVASAMNPDAVSTLSLPLGWIGLPLDKLLTAIGGGKLLMPPVCVDVVAEAAVRACAWANQPGKDIHGICDVYRMRDICNAVDPSLHEDRNGTVTASTASKEASTVKNDR | not soluble
ETTSCEFSVSPSGLAFCDKVVGYGPEAVKGQLIKAHYVGKLENGKVFDSSYNRGKPLTFRIGVGEVIKGWDQGILGSDGIPPMLTGGKRTLRIPPELAYGDRGAGCKGGSCLIPPASVLLFDIEYIGKA | soluble
GALGVVDEVHAGKEIGLQIYSLSQELYKGDVAANLRKVKDMGYSKLELAGYGKGAIGGVPMMDFKKMAEDAGLKIISSHVNPVDTSISDPFKAMIFKYSKEVTPKIMEYWKATAADHAKLGCKYLIQPMMPTITTHDEAKLVCDIFNQASDVIKAEGIATGFGYHNHNMEFNRVATKEQQEKVKGNPFAAFMKVGDQIYDLMLKDTDPSKVYFEMDVYWTVMGQNDPVEYMQKHPDRIKVLHIKDRAVFGQSGMMNFEMIFKQMYANGIKDYFVELEQMPDGRTQFAGVKDCADYLIKAPFVK | soluble
MGSDKIHHHHHHMNDWDRLYDRAETLLSRLEGLLRADAPEPEWNAAAFRWRKTGRSGFIEPVRYPDSITFEALQSIGRQKSLVDQNTRQFVRHHPANNVLLTGARGTGKSSLVKAMLNKYAADGLRLIEVEKHHLVDLPEIVEKVYRRPERFILYCDDLSFESGEPGYKALKVVLDGSIATASENVLVYATSNRRHLMPEYRVDNQDTRHTGGEIHPSEAVEEKTSLSERFGLWISFYPFDQEQYLDIVARWLAYFGIDKMDDSIREEALRWALGRGSRNGRVAWQFARDRAGREKAGQKPADKTEFRAEQ | not soluble
MSLQIKSIKAYHVVQPFVDGPYRMSKGRQADAFDAVIVAITADSGLTGWGEMAPLGNFYSAAFPAGARAGVPEIAPHLIGHDPRGLASIGRLMDTVFKGHPYIKSALDMACWDLAARAAGVPLVTMLGGRESDMAETYRVVTHGTLDQMAALAKRIIAEGCRRLQVKVGGNVHDDIERVTTVASAVPKGTVIFCDANAGWTPYQARQFADATRGIDYTFEQPCTTIEENMSVRRMLDKPMVLDESVTSLEEMLEIHRLGAADGLTLKISRLGGVTRTRQIRDVAVDLGFMITVEDTGGAEIDTAAMAHLSLSTPQERRLHAIAFHEWVTVRTAFNAPPVTGSHMGIPDGPGLGIDVDPSLLGKPFFEIGEGHHHHHH | soluble
MSNVIFSQKLYDTAQMVVDGCMGDADPACQTACPMHTDVKQYVRLAGEGNYQEALDLIRGKLFLPQTLGRICAHPCEAACRRNTEYNQPISVAGIKRFVAEKMDKQSNWDLTVANDSGKKIAIVGAGPAGAQAAIELRRSGHQVTIYEKLNVYGGMMRVGIPEYRLPRDVIDFEYGYLDMLGIETKFGIEIGKDISFNELRLSHDAIILAHGAHVGSIIPLPGHKAQGVFSAVEYLKEVSETRDFPRAGKRIMVIGGGDVAMDCARSSWRIGVDEVHQCSLEEMAKLPASQIEIDESLEEGVLFNAGWGPISIEETDGKVTGIVLKKVISIFDENGNFSPSYSDETRTIAVDTVIFATGQVVADITDGALEQTRGGRYVVDKDTLASSVDGVYVAGDACGGNIVVEAMALGHKAALSIERQFAKRPLTENRDFEKEYNYPSRLDIPLPKGTTDTPRLHGQLRDAEERKQDFKQVDLGFSEEQIKQEASRCLQCTCKLCMNECVMMNDFGDCPKTLFSDFINNKTMDPLLAYSCNACDQCTIVCPKDYPMKEMFLSARVDFVNANGGNSPIPGHKAINMHQKLGFSKFFTMAKRTVASKLEHHHHHH | not soluble
RDRSTIARIQFRLPDGSSFTNQFPSDAPLEEARQFAAQTVGNTYGNFSLATMFPRREFTREDYKRRLLDLELAPSASVVLLPAGRPATSIVHSSSGDILMID | soluble
MAHNYLLEIGLEEIPAHVVTPSIKQLVQKVTAFLKENRLTYDSIDHFSTPRRLAIRINGLGDQQPDIEEDAKGPARKIAQDADGNWTKAAIGFTRGQGLTVDDITFKTIKGTDYVYVHKLIKGKMTKEILTGLKEVVESINFPTMMKWANFDFKYVRPIRWLVSILDEEVLPFSILDVTAGRRTEGHRFLGEAVELANAEEYEAKLHDQFVIVDADERKQLISNQIKAIAESNRWNVTPNPGLLEEVNNLVEWPTAFNGGFDEKYLAIPEEVLITSMRDHQRFFFVRDQAGKLLPNFISVRNGNEEFIENVVRGNEKVLTARLEDAAFFYEEDQKHDINYYVDRLKKVSFHDKIGSMYEKLQRVNSIAKVIGNTLNLNQTELDDIDRATMIYKFDLVTGMVGEFSELQGVMGEKYAQLNGENQAVAQAIREHYMPNSAEGDLPESVTGAVVALADKFDNIFSFFSAGMIPSGSNDPYALRRHAYGIVRILNSRDWQLDLNQFKSQVKTELAENGTAFGVDVDQNFDQVLNFFNDRIKQLLDHQKISHDIVETVLTGNNHD | not soluble
MGSDKIHHHHHHMKKLLLPLIIMLLVLAACGNQGEKNNKAETKSYKMDDGKTVDIPKDPKRIAVVAPTYAGGLKKLGANIVAVNQQVDQSKVLKDKFKGVTKIGDGDVEKVAKEKPDLIIVYSTDKDIKKYQKVAPTVVVDYNKHKYLEQQEMLGKIVGKEDKVKAWKKDWEETTAKDGKEIKKAIGQDATVSLFDEFDKKLYTYGDNWGRGGEVLYQAFGLKMQPEQQKLTAKAGWAEVKQEEIEKYAGDYIVSTSEGKPTPGYESTNMWKNLKATKEGHIVKVDAGTYWYNDPYTLDFMRKDLKEKLIKAAK | not soluble
